According to PMC4089486 (Acta Crystallographica Section D: Biological Crystallography, 2014):

Biological target: Clostridium difficile strain 630 alanine racemase, recombinant wild type (Clostridium difficile strain 630, UniProt A0AC59G415 1-385)
Assay: SEC
Settings: both partners purified

B1: CdAlr cleavage product, amino acids 1-271 (domain or fragment)
chain: MQKITVPTWAEINLDNLRFNLNNIKNLLEEDIKICGVIKADAYGHGAVEVAKLLEKEKVDYLAVARTAEGIELRQNGITLPILNLGYTPDEAFEDSIKNKITMTVYSLETAQKINEIAKSLGEKACVHVKIDSGMTRIGFQPNEESVQEIIELNKLEYIDLEGMFTHFATADEVSKEYTYKQANNYKFMSDKLDEAGVKIAIKHVSNSAAIMDCPDLRLNMVRAGIILYGHYPSDDVFKDRLELRPAMKLKSKIGHIKQVEPGVGISYGLK
binding result: binds
